Data published in the array DNA melting data of Ke et al..

Experiment: melting temperature; melt of duplexes
Conditions: sodium 0.0675 M; strand 1 µM
“CGACGTGCCAAATGTGCTG+CAGCACATGTGGCACGTCG ((((((((((.((((((((+)))))))).))))))))))” showed a Tm of 58.5 °C. “CGACGTGCCAAATGTGCTG+CAGCACATGTTGCACGTCG ((((((((.(.((((((((+)))))))).).))))))))” gave a Tm of 50.5 °C. In the case of “CGACGTGCCAAATGTGCTG+CAGCACATTATGCACGTCG ((((((((..(((((((((+)))))))))..))))))))”, the Tm is reported as 51.2 °C. Work on “CGACGTGCCAAATGTGCTG+CAGCACATTCCGCACGTCG ((((((((..(((((((((+)))))))))..))))))))” yielded a Tm of 50.1 °C. “CGACGTGCCAAATGTGCTG+CAGCACATTCGGCACGTCG (((((((((.(((((((((+))))))))).)))))))))” showed a Tm of 57.5 °C. “CGACGTGCCAAATGTGCTG+CAGCACATTCTGCACGTCG ((((((((..(((((((((+)))))))))..))))))))” gave a Tm of 51.5 °C. “CGACGTGCCAAATGTGCTG+CAGCACATTGGGCACGTCG (((((((((.(((((((((+))))))))).)))))))))” gave a Tm of 59.5 °C. Substance “CGACGTGCCAAATGTGCTG+CAGCACATTTCGCACGTCG ((((((((.((((((((((+)))))))))).))))))))” has a Tm of 54.1 °C. Substance “CGACGTGCCAAATGTGCTG+CAGCACATTTGGCACGTCG (((((((((((((((((((+)))))))))))))))))))” has a Tm of 64.5 °C. “CGACGTGCCAAATGTGCTG+CAGCACATTTTGCACGTCG ((((((((.((((((((((+)))))))))).))))))))” gave a Tm of 55.1 °C. Substance “CGACGTGCCACATGTGCTG+CAGCACATAACGCACGTCG ((((((((...((((((((+))))))))...))))))))” has a Tm of 47.1 °C. “CGACGTGCCACATGTGCTG+CAGCACATAATGCACGTCG ((((((((...((((((((+))))))))...))))))))” gave a Tm of 47.5 °C. For “CGACGTGCCACATGTGCTG+CAGCACATACAGCACGTCG ((((((((...((((((((+))))))))...))))))))”, the Tm was 48.6 °C. “CGACGTGCCACATGTGCTG+CAGCACATAGAGCACGTCG ((((((((...((((((((+))))))))...))))))))” gave a Tm of 49.4 °C. Work on “CGACGTGCCACATGTGCTG+CAGCACATAGCGCACGTCG ((((((((...((((((((+))))))))...))))))))” yielded a Tm of 48.5 °C. Work on “CGACGTGCCACATGTGCTG+CAGCACATATAGCACGTCG ((((((((.(.((((((((+)))))))).).))))))))” yielded a Tm of 48.4 °C. With “CGACGTGCCACATGTGCTG+CAGCACATCAAGCACGTCG ((((((((...((((((((+))))))))...))))))))” the Tm was 47.7 °C. With “CGACGTGCCACATGTGCTG+CAGCACATCACGCACGTCG ((((((((...((((((((+))))))))...))))))))” the Tm was 46.2 °C. Substance “CGACGTGCCACATGTGCTG+CAGCACATCAGGCACGTCG (((((((((..((((((((+))))))))..)))))))))” has a Tm of 53.2 °C. With “CGACGTGCCACATGTGCTG+CAGCACATCCGGCACGTCG (((((((((..((((((((+))))))))..)))))))))” the Tm was 52.6 °C. Work on “CGACGTGCCACATGTGCTG+CAGCACATCGTGCACGTCG ((((((((...((((((((+))))))))...))))))))” yielded a Tm of 46.3 °C. Substance “CGACGTGCCACATGTGCTG+CAGCACATCTCGCACGTCG ((((((((.(.((((((((+)))))))).).))))))))” has a Tm of 46.8 °C. “CGACGTGCCACATGTGCTG+CAGCACATCTTGCACGTCG ((((((((.(.((((((((+)))))))).).))))))))” gave a Tm of 47.5 °C. With “CGACGTGCCACATGTGCTG+CAGCACATGACGCACGTCG ((((((((..(((((((((+)))))))))..))))))))” the Tm was 49.5 °C. “CGACGTGCCACATGTGCTG+CAGCACATGCGGCACGTCG (((((((((.(((((((((+))))))))).)))))))))” showed a Tm of 60.2 °C. With “CGACGTGCCACATGTGCTG+CAGCACATGGAGCACGTCG ((((((((..(((((((((+)))))))))..))))))))” the Tm was 56.1 °C. “CGACGTGCCACATGTGCTG+CAGCACATGGCGCACGTCG ((((((((..(((((((((+)))))))))..))))))))” gave a Tm of 54 °C. “CGACGTGCCACATGTGCTG+CAGCACATGTCGCACGTCG ((((((((.((((((((((+)))))))))).))))))))” showed a Tm of 56.4 °C. “CGACGTGCCACATGTGCTG+CAGCACATGTGGCACGTCG (((((((((((((((((((+)))))))))))))))))))” gave a Tm of 66.4 °C. In the case of “CGACGTGCCACATGTGCTG+CAGCACATGTTGCACGTCG ((((((((.((((((((((+)))))))))).))))))))”, the Tm is reported as 57.4 °C. With “CGACGTGCCACATGTGCTG+CAGCACATTAAGCACGTCG ((((((((...((((((((+))))))))...))))))))” the Tm was 48.6 °C. For “CGACGTGCCACATGTGCTG+CAGCACATTCAGCACGTCG ((((((((...((((((((+))))))))...))))))))”, the Tm was 48.9 °C. With “CGACGTGCCACATGTGCTG+CAGCACATTCGGCACGTCG (((((((((..((((((((+))))))))..)))))))))” the Tm was 53.4 °C. With “CGACGTGCCACATGTGCTG+CAGCACATTGAGCACGTCG ((((((((...((((((((+))))))))...))))))))” the Tm was 52.2 °C. Substance “CGACGTGCCACATGTGCTG+CAGCACATTTGGCACGTCG ((((((((((.((((((((+)))))))).))))))))))” has a Tm of 57.6 °C. Substance “CGACGTGCCACATGTGCTG+CAGCACATTTTGCACGTCG ((((((((.(.((((((((+)))))))).).))))))))” has a Tm of 48 °C. For “CGACGTGCCAGATGTGCTG+CAGCACATAACGCACGTCG ((((((((...((((((((+))))))))...))))))))”, the Tm was 48.6 °C. With “CGACGTGCCAGATGTGCTG+CAGCACATACCGCACGTCG ((((((((...((((((((+))))))))...))))))))” the Tm was 47.6 °C. Work on “CGACGTGCCAGATGTGCTG+CAGCACATACGGCACGTCG (((((((((..((((((((+))))))))..)))))))))” yielded a Tm of 54.7 °C. Substance “CGACGTGCCAGATGTGCTG+CAGCACATAGGGCACGTCG (((((((((..((((((((+))))))))..)))))))))” has a Tm of 55.8 °C. Work on “CGACGTGCCAGATGTGCTG+CAGCACATATTGCACGTCG ((((((((.(.((((((((+)))))))).).))))))))” yielded a Tm of 50.1 °C. “CGACGTGCCAGATGTGCTG+CAGCACATCAAGCACGTCG ((((((((..(((((((((+)))))))))..))))))))” showed a Tm of 53.7 °C. Work on “CGACGTGCCAGATGTGCTG+CAGCACATCATGCACGTCG ((((((((..(((((((((+)))))))))..))))))))” yielded a Tm of 53.4 °C. With “CGACGTGCCAGATGTGCTG+CAGCACATCCCGCACGTCG ((((((((..(((((((((+)))))))))..))))))))” the Tm was 53.3 °C. Substance “CGACGTGCCAGATGTGCTG+CAGCACATCCTGCACGTCG ((((((((..(((((((((+)))))))))..))))))))” has a Tm of 54.3 °C. In the case of “CGACGTGCCAGATGTGCTG+CAGCACATCGGGCACGTCG (((((((((.(((((((((+))))))))).)))))))))”, the Tm is reported as 62.2 °C. Work on “CGACGTGCCAGATGTGCTG+CAGCACATCTTGCACGTCG ((((((((.((((((((((+)))))))))).))))))))” yielded a Tm of 57 °C. For “CGACGTGCCAGATGTGCTG+CAGCACATGAAGCACGTCG ((((((((...((((((((+))))))))...))))))))”, the Tm was 50.5 °C. “CGACGTGCCAGATGTGCTG+CAGCACATGAGGCACGTCG (((((((((..((((((((+))))))))..)))))))))” showed a Tm of 55.4 °C. In the case of “CGACGTGCCAGATGTGCTG+CAGCACATGCGGCACGTCG (((((((((..((((((((+))))))))..)))))))))”, the Tm is reported as 54.6 °C. In the case of “CGACGTGCCAGATGTGCTG+CAGCACATGGCGCACGTCG ((((((((...((((((((+))))))))...))))))))”, the Tm is reported as 50.4 °C. For “CGACGTGCCAGATGTGCTG+CAGCACATTAAGCACGTCG ((((((((...((((((((+))))))))...))))))))”, the Tm was 50.7 °C. Work on “CGACGTGCCAGATGTGCTG+CAGCACATTAGGCACGTCG (((((((((..((((((((+))))))))..)))))))))” yielded a Tm of 56.2 °C. For “CGACGTGCCAGATGTGCTG+CAGCACATTATGCACGTCG ((((((((...((((((((+))))))))...))))))))”, the Tm was 50.5 °C. Substance “CGACGTGCCAGATGTGCTG+CAGCACATTCAGCACGTCG ((((((((...((((((((+))))))))...))))))))” has a Tm of 50.7 °C. Substance “CGACGTGCCAGATGTGCTG+CAGCACATTCCGCACGTCG ((((((((...((((((((+))))))))...))))))))” has a Tm of 49.6 °C. Work on “CGACGTGCCAGATGTGCTG+CAGCACATTCGGCACGTCG (((((((((..((((((((+))))))))..)))))))))” yielded a Tm of 56.2 °C. Substance “CGACGTGCCAGATGTGCTG+CAGCACATTGAGCACGTCG ((((((((...((((((((+))))))))...))))))))” has a Tm of 52.1 °C. “CGACGTGCCAGATGTGCTG+CAGCACATTGCGCACGTCG ((((((((...((((((((+))))))))...))))))))” gave a Tm of 51.2 °C. Substance “CGACGTGCCAGATGTGCTG+CAGCACATTTCGCACGTCG ((((((((.(.((((((((+)))))))).).))))))))” has a Tm of 49.6 °C. Work on “CGACGTGCCATATGTGCTG+CAGCACATAAAGCACGTCG ((((((((..(((((((((+)))))))))..))))))))” yielded a Tm of 51.3 °C. Work on “CGACGTGCCATATGTGCTG+CAGCACATACGGCACGTCG (((((((((.(((((((((+))))))))).)))))))))” yielded a Tm of 55.3 °C. With “CGACGTGCCATATGTGCTG+CAGCACATAGCGCACGTCG ((((((((..(((((((((+)))))))))..))))))))” the Tm was 50 °C. Work on “CGACGTGCCATATGTGCTG+CAGCACATAGTGCACGTCG ((((((((..(((((((((+)))))))))..))))))))” yielded a Tm of 47.1 °C. “CGACGTGCCATATGTGCTG+CAGCACATATAGCACGTCG ((((((((.((((((((((+)))))))))).))))))))” gave a Tm of 53.2 °C. For “CGACGTGCCATATGTGCTG+CAGCACATCCTGCACGTCG ((((((((...((((((((+))))))))...))))))))”, the Tm was 47.7 °C. Work on “CGACGTGCCATATGTGCTG+CAGCACATCGAGCACGTCG ((((((((...((((((((+))))))))...))))))))” yielded a Tm of 49.8 °C. Work on “CGACGTGCCATATGTGCTG+CAGCACATCGTGCACGTCG ((((((((...((((((((+))))))))...))))))))” yielded a Tm of 44.2 °C. In the case of “CGACGTGCCATATGTGCTG+CAGCACATCTGGCACGTCG ((((((((((.((((((((+)))))))).))))))))))”, the Tm is reported as 57.1 °C. Substance “CGACGTGCCATATGTGCTG+CAGCACATGGAGCACGTCG ((((((((...((((((((+))))))))...))))))))” has a Tm of 51.5 °C. “CGACGTGCCATATGTGCTG+CAGCACATGGCGCACGTCG ((((((((...((((((((+))))))))...))))))))” showed a Tm of 50.3 °C. In the case of “CGACGTGCCATATGTGCTG+CAGCACATGTCGCACGTCG ((((((((.(.((((((((+)))))))).).))))))))”, the Tm is reported as 50.5 °C.
